Reference: US20020062008A1

Legend:
[1] = molecular target: two domain VCAM-1/Fc with substitution at residue 40 (UniProt P19320); assay: adhesion of αdβ2 CHO cells to immobilized mutant VCAM-1/Fc
[2] = molecular target: LFA-1 leucine zipper fusion protein (soluble CD11a/CD18) (UniProt P20701); assay: ELISA as printed: αd/CD18 and immobilized CD11a/CD18
[3] = molecular target: immobilized CD11b/CD18 (UniProt P05107); assay: ELISA as printed: αd/CD18 and immobilized CD11b/CD18
[4] = molecular target: soluble ICAM-R/IgG1 fusion protein (UniProt P32942); assay: ELISA, soluble integrin supernatant on immobilized ICAM-R/Ig, non-blocking antibody detection
[5] = molecular target: recombinant VCAM-1 (commercial preparation, R & D Systems), immobilized (UniProt P19320); assay: cell-based or functional assay
recombinant VCAM-1 (commercial preparation, R & D Systems), immobilized, sequence (P19320 25-698 limits assumed): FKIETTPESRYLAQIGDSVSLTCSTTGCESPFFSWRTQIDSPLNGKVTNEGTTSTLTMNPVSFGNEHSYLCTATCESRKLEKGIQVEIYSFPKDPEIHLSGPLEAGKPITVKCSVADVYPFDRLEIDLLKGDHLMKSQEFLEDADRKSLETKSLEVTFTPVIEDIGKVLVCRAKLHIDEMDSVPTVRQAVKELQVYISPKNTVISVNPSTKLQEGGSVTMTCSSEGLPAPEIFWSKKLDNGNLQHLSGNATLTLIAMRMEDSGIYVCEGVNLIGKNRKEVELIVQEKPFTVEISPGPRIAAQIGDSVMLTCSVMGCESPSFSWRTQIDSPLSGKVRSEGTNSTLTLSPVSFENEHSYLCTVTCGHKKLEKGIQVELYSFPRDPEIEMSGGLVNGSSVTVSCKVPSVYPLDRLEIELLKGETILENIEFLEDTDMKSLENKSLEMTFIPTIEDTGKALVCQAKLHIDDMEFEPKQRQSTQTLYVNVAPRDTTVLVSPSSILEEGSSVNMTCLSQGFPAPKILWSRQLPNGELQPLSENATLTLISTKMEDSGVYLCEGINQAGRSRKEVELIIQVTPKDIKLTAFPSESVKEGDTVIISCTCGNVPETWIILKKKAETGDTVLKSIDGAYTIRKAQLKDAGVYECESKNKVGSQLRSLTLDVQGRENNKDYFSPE

two domain VCAM-1/Fc with substitution at residue 40, sequence (P19320 25-220): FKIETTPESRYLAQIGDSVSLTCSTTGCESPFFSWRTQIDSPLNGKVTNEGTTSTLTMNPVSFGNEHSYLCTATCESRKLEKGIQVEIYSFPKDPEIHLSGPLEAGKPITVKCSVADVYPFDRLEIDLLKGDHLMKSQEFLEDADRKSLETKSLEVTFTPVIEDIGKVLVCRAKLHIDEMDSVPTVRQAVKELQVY
soluble ICAM-R/IgG1 fusion protein, sequence (P32942 30-485 limits assumed): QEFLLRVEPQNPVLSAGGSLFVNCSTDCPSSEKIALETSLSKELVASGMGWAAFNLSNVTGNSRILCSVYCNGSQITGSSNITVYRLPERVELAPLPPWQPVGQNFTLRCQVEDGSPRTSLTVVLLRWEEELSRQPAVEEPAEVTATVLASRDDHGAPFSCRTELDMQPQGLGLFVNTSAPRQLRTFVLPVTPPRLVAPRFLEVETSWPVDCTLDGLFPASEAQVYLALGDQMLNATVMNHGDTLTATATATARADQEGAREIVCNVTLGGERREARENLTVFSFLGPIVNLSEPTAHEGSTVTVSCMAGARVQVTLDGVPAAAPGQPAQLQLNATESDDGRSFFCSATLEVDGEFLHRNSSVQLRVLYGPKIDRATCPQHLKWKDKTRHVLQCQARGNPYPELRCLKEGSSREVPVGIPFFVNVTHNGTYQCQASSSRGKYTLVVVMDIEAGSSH

human αd/CD18 heterodimer expressed on transfected cells (COS, CHO, JY) (from UniProt P05107 23-769) (receptor)
binding relative to wild-type VCAM-1 [1]: 50%

soluble human αd/CD18 leucine zipper heterodimer (from UniProt P05107 23-700) (receptor)
fold greater than background binding [2]: 5 fold | fold greater than background binding [3]: 15 fold | fold greater than control well [4]: 10 fold

α4 integrins on human eosinophils (from UniProt P13612 34-1032; P05556 21-798) (receptor)
binding rate of IL-5 cultured eosinophils to immobilized VCAM-1 in the presence of a monoclonal antibody against α4 [5]: 18.1%
